Test results: patent US9157088B2, “Transferases, epimerases, polynucleotides encoding these and uses thereof” (priority 2007, dated 2015)

How the values were obtained:
[1] = molecular target: T1, kiwifruit GDP-L-Galactose Guanyltransferase EST 319998 (Actinidia chinensis, UniProt A0A2R6QD99); assay: Fixed time transferase assay, aliquots measured using coupling enzymes; assay type: biochemical; details: acceptor Mannose-1-P; 0.057 ug protein
Procedure: The assay for GDP-L-Galactose-1-Phosphate Guanyltransferase was run in 20 mM TrisCl, pH 8.0, GDP-L-Galactose, with 1 mM D-Mannose-1-Phosphate. GDP-L-Galactose was either used directly from the Glycoteam product (in which case high backgrounds were observed due to contaminating L-Galactose-1-Phosphate) or GDP-L-Galactose was generated using the epimerase. In the latter case, 0.21 mg of epimerase was incubated with GDP-D-Mannose in 20 mM Tris Cl pH 8 in a total volume of 400 μL (see Wolucka et al., 2001) for 30 minutes at 20 C and then used directly in the assay at a 1 to 20 dilution. Assays were either terminated after 10 minutes by heating to 100 C for three minutes, or directly coupled to the phosphatase and L-Galactose dehydrogenase to measure product formation during the assay. […] Assays for L-Galactose were linear with added L-Galactose-1-Phosphate over the range measured. […]
(§1) The applicants used two assays to characterise the enzyme, using two sources of the substrate GDP-L-Galactose. […] The applicants either measured the product formed by adding the coupling enzymes in the assay and measuring the time course of NADH formed, or by stopping the reaction after 10 minutes by boiling for 3 minutes and centrifuging. […]

[2] = molecular target: T1, kiwifruit GDP-L-Galactose Guanyltransferase EST 319998; assay: Fixed time transferase assay, aliquots measured by LCMS; assay type: biochemical; details: acceptor Mannose-1-P; 0.057 ug protein
Procedure: (§2) The assay for GDP-L-Galactose-1-Phosphate Guanyltransferase was run in 20 mM TrisCl, pH 8.0, GDP-L-Galactose, with 1 mM D-Mannose-1-Phosphate. GDP-L-Galactose was either used directly from the Glycoteam product (in which case high backgrounds were observed due to contaminating L-Galactose-1-Phosphate) or GDP-L-Galactose was generated using the epimerase. In the latter case, 0.21 mg of epimerase was incubated with GDP-D-Mannose in 20 mM Tris Cl pH 8 in a total volume of 400 μL (see Wolucka et al., 2001) for 30 minutes at 20 C and then used directly in the assay at a 1 to 20 dilution. Assays were either terminated after 10 minutes by heating to 100 C for three minutes, or directly coupled to the phosphatase and L-Galactose dehydrogenase to measure product formation during the assay. Heat terminated assays were cooled on ice, centrifuged to remove precipitated protein and L-Galactose assayed using the coupling enzymes described above (see also (Laing et al., 2004)). Assays for L-Galactose were linear with added L-Galactose-1-Phosphate over the range measured. Backgrounds were run using the empty vector control, which gave the same result as a boiled enzyme control.
As an alternative assay, LCMS was used to identify the forward reaction described above as well measure as the reverse pyrophosphorylase reaction where GTP (1 mM) and L-Galactose-1-Phosphate were incubated as above and the formation of GDP-L-Galactose followed. GDP-D-Mannose and GDP-L-Galactose were separated by HPLC before MS. LC-MS employed an LTQ linear ion trap mass spectrometer fitted with an ESI interface (ThermoQuest, Finnigan, San Jose, Calif., USA) coupled to an EttanTM MDLC (GE Healthcare Bio-Sciences). Separation of GDP-D-Mannose and GDP-L-Galactose was achieved using a Hypercarb column (Thermo Electron, USA), 100×2.1 mm maintained at 40 C. Solvents were (A) 50 mM ammonium acetate and (B) acetonitrile and the flow rate was 200 uL/min. The initial mobile phase, 5% B was held for 3 min, then ramped linearly to 20% B at 11 min, held for 5 min, then ramped linearly to 70% B at 19 min and held for 5 min before resetting to the original conditions. Retention times for GDP-D-Mannose and GDP-L-Galactose were 16.8 min and 17.5 min, respectively.
MS data was acquired in the negative mode using both a selective reaction monitoring (SRM) method SRM m/z 604>m/z 344, 362, 424, 442 and a selected ion monitoring (SIM) method SIM m/z 604. This SIM method monitors only the (M-H)— ion for GDP-D-Mannose and GDP-L-Galactose while the SRM method monitors the distinctive daughter ions formed by fragmenting the precursor ion (M-H)— for both compounds. Both methods maximise sensitivity by screening out any chemical noise from other compounds present. The ESI voltage, capillary temperature, sheath gas pressure, sweep gas and auxiliary gas were set at −10 V, 350° C., 25 psi, 3 psi, and 3 psi, respectively. Separation of D-Mannose-1-Phosphate and L-Galactose-1-Phosphate was achieved isocratically using a Hypercarb column (Thermo Electron, USA), 100×2.1 mm maintained at 40° C. Solvents were (A) 20 mM ammonium acetate and (B) methanol and the flow rate was 200 uL/min. Using a mobile phase of 2% B the retention times for D-Mannose-1-Phosphate and L-Galactose-1-Phosphate were 4.3 min and 4.9 min, respectively. MS data was acquired in the negative mode using both a selective reaction monitoring (SRM) method SRM m/z 259>m/z 79, 97 and a selected ion monitoring (SIM) method SIM m/z 259. […]

[3] = assay type: physicochemical
Text: GDP-L-Galactose (˜50% pure, contaminated with the breakdown products GDP and L-Galactose-1-Phosphate as shown by HPLC and LCMS) and L-Galactose-1-Phosphate were purchased from Glycoteam, Hamburg, Germany. […] Other biochemicals were purchased from Sigma.

[4] = Transferase activity of E. coli expressed enzymes (coupled reaction and LCMS); assay type: biochemical; details: enzyme expressed in E. coli, His tag purified
Procedure: Expression of genes in E. coli. The EST 319998 from young fruit of Actinidia chinensis and At4g26850 were each cloned into pET30A (Novagene, USA), their sequence checked and expressed in E. coli. The N terminal His6 tag was used to purify the protein. An empty vector control was expressed and purified in parallel. Techniques were essentially as described earlier (Laing et al., 2004). In much of this work the His-protein was further purified on a 5 mL HiTrap Q FF column (GE Healthcare), and identical results were obtained with both preparations.
as §2, with “control. […]” for “control.”
as §1

[5] = tested on: Tobacco (Nicotiana benthamiana) leaves; assay: Leaf ascorbate after transient transformation of tobacco leaves; assay type: in vivo
Text: (§3) Tobacco (Nicotiana benthamiana) was transiently transformed with Agrobacterium containing the kiwifruit gene for GDP-L-Galactose Guanyltransferase (EST 319998) cloned in pGreen (Hellens et al., 2000) mixed with Agrobacterium containing the gene for the silencing suppressor P19 as previously described (Hellens et al., 2005). Controls were run using Agrobacterium containing P19 in pGreen alone. Tobacco leaves were harvested 9 days after transformation and frozen in liquid nitrogen.
Ascorbate was extracted as described previously in metaphosphoric acid without reducing agent (Davey et al., 2003; Rassam and Laing, 2005). […]

[6] = tested on: Tobacco (Nicotiana benthamiana) leaves; assay: Transferase activity in extracts of transiently transformed tobacco leaves; assay type: in vivo; details: transient expression in pGreen mixed with P19
Procedure: The transferase activity in tobacco leaves was measured by extracting liquid nitrogen ground leaves in approximately five volumes of TrisCI pH 8.0, 2 mM DTT and 1 mM EDTA, centrifuging, desalting the supernatant using a NAP desalting column equilibrated with the same buffer and assaying the enzyme using the coupled assay described above. Protein in the extracts was measured using the Biorad Bradford Coumassie assay (Bradford, 1976) using BSA as a standard.
as §3

[7] = tested on: Arabidopsis plants; assay: Leaf ascorbate in stably transformed Arabidopsis plants; assay type: in vivo, Arabidopsis thaliana; details: third generation, kanamycin resistant plants; FIGS. 20A-20B
Procedure: In the second generation, up to 12 plants from each line, selected from the kanamycin plates, were grown to a standard size of a complete rosette of leaves in the glasshouse and ascorbate measured (FIG. 19). […] The increased ascorbate ranged up to over 4 times the normal level of ascorbate in Arabidopsis leaves.
Selected plants from the second generation were taken on to the next generation. […] Again the applicants observed plants with leaf ascorbate over 4 times the control level (FIGS. 20A-20B), but again within a line with high ascorbate progeny, there were always plants with high and low ascorbate in spite of all plants coming from a high ascorbate kanamycin resistant parent. […] Regions of complete sequence identity are found, when the 319998 and Arabidopsis sequence is aligned (data not shown). This could account for the apparent silencing seen.

[8] = tested on: Nicotiana tabacum ‘Samsun’; assay: Leaf ascorbate in stably transformed tobacco; assay type: in vivo; details: two kanamycin resistant lines; FIG. 22
Procedure: Tobacco was transformed with 319998 and Kanamycin resistant lines selected. These plants were transferred to soil and grown until several leaves were expanded. Ascorbate and gene expression was measured in these leaves (FIG. 22).
Nicotiana tabacum ‘Samsun’ was transformed using Agrobacterium tumefaciens strain GV101 carrying the pHex vector containing EST 319998. Methods used were as described by Guerineau et al (1990), except kanamycin was used instead of sulphonamide selective agents at the rate of 100 mg.L-1.

[9] = substrate: O=P(O)(O)O[C@H]1O[C@H](CO)[C@@H](O)[C@H](O)[C@@H]1O; assay: purified protein, by the assay type; details: other: varying concentrations of the guanyl acceptor; continuous coupled assay; FIG. 3; pH 8.0; 20.0 °C

In the case of `Nc1nc2c(ncn2[C@@H]2O[C@H](COP(=O)(O)OP(=O)(O)OC3O[C@@H](CO)[C@@H](O)[C@@H](O)[C@@H]3O)[C@@H](O)[C@H]2O)c(=O)[nH]1` (stereo partly drawn) [GDP-L-Galactose], the “transferase activity, Coupled assay” value [1] is reported as 0.017 nmoles/sec/ug protein, the “transferase activity, LCMS” value [2] is reported as “high BG” and the acid stability [3] is reported as “extremely acid labile”.

B1: kiwifruit GDP-L-Galactose Guanyltransferase EST 319998 (Actinidia chinensis var. chinensis) (protein)
chain: MLKIKRVPTVVSNFQKDEAEDGARSGGGCGRNCLQKCCIQGAKLPLYAFKRVKEVVGEKGLLAVDDEEAPVAFLDSLLLGEWEDRVQRGLFRYDVTACETKVIPGEYGFIAQLNEGRHLKKRPTEFRVDKVLQPFDESKFNFTKVGQEEVLFQFEASDDNEVQFFPNAPVDVENSPSVVAINVSPIEYGHVLLIPRILECLPQRIDRESFLLALHMAAEAGNPYFRLGYNSLGAFATINHLHFQAYYLAVPFPIEKAPTRKITTLNGGVKISDLLNYPVRGLVFEGGNSLEDLSNAVSDSSICLQGNNIPYNVLISDSGKCIFLLPQCYAEKQALGEVSSDLLDTQVNPAVWEISGHMVLKRKEDYEEASEGNAWRLLAEVSLSEERFEEVKALIFEAISCADDRSGSTAENLLEEPDDNPQSRKVANDALNKGSHRGMVPGKQECLVQH
For B1, the “GDP-L-Galactose Guanyltransferase activity of the expressed enzyme” value [4] was “could catalyse the conversion of GDP-L-Galactose to L-Galactose-1-P”, the “effect on leaf ascorbate” value ([5]; His tag in front of the transferase sequence in pGreen, FIGS. 17A-17B) was “active in increasing leaf ascorbate” and the “function of construct in raising leaf ascorbate” value ([5]; transferase cloned into pGreenII 0229 62-SK (bialaphos resistance), FIGS. 17A-17B) was “fully functional”. For the same molecule, the “effect on leaf ascorbate” value ([5]; transient expression with P19) was “usually was the most effective gene”, the “increase in leaf ascorbate compared to control leaves” value ([5]; transient expression with P19, listed as 319998) was “three fold increase in ascorbate” and the “effect on leaf ascorbate” value ([5]; transient expression with P19, listed as 319998_Ac) was “increased ascorbate levels in the leaf”. For the same molecule, the “increase in leaf ascorbate compared to control leaves” value ([5]; transient expression with P19, listed as transferase) was ~3 fold, the “Leaf ascorbate levels, average” value ([5]; transient expression with P19, mean of three plants, three leaves per plant, harvested 9 days after transformation) was 102.0 and the “Relative amount of ascorbate” value ([5]; transient expression with P19, relative to controls) was 3.0. The “GDP-L-Galactose Guanyltransferase activity in leaf extract” value [6] was “measurable activity could be measured in the extract of the leaves”, the “leaf ascorbate relative to the control level” value [7] was “over 4 times” and the “increase in leaf ascorbate” value [8] was 60%. The Km [9] was 110 ± 30 µM.
